Measurements: patent US20220362330A1, “Compositions and Methods for Increasing Epithelial Barrier Function” (The Board of Trustees of the Leland Stanford Junior …, priority 2019, published 2022)
“Also recorded” adds a separate entry of the source. Square brackets hold non-standard residues; d marks the D form. Ends that are not written are not given here. Ahx = NCCCCCC(=O)O

B1: Fc-EFNA3: Recombinant Mouse Ephrin-A3 Fc Chimera Protein, SEQ ID NO: 13 (protein)
chain: QGPGGALGNRHAVYWNSSNQHLRREGYTVQVNVNDYLDIYCPHYNSSGPGGGAEQYVLYMVNLSGYRTCNASQGSKRWECNRQHASHSPIKFSEKFQRYSAFSLGYEFHAGQEYYYISTPTHNLHWKCLRMKVFVCCASTSHSGEKPVPTLPQFTMGPNVKINVLEDFEGENPQVPKLEKSISGIEGRMDPAKTTAPSVYPLAPVCGDTTGSSVTLGCLVKGYFPEPVTLTWNSGSLSSGVHTFPAVLQSDLYTLSSSVTVTSSTWPSQSITCNVAHPASSTKVDKKIEPRGPTIKPCPPCKCPAPNLLGGPSVFIFPPKIKDVLMISLSPIVTCVVVDVSEDDPDVQISWFVNNVEVHTAQTQTHREDYNSTLRVVSALPIQHQDWMSGKEFKCKVNNKDLPAPIERTISKPKGSVRAPQVYVLPPPEEEMTKKQVTLTCMVTDFMPEDIYVEWTNNGKTELNYKNTEPVLDSDGSYFMYSKLRVEKKNWVERNSYSCSVVHEGLHNHHTTKSFSRTPGK

Tests used:
VK2/E6E7 vaginal cells = assay: DSG1 gene expression in human vaginal epithelial cell line; format: cell-based; conditions: 24 h, qRT-PCR
Procedure: VK2/E6E7 vaginal cells at 70-90% confluency were treated with indicated concentrations of EFNA3-derived peptide dimer for 24 h. Cells were harvested for RNA isolation and determination of relative DSG1 gene expression via qRT-PCR and ΔΔCt analysis.
VK2/E6E7 (ATCC® CRL-2616™) vaginal epithelial cell line was grown using ReproLife™ Reproductive Medium Complete Kit for up to 4 passages. For experiments, 10^5 cells were plated in 12-well plates. Cells reached 70-90% confluency after 24 hand were stimulated with EFNA3-like peptide dimer or vehicle. Cells were incubated for 24 h with indicated treatments. RNA was extracted and 500 ng of RNA used to generate cDNA using the SuperScript™ IV VILO™ Master Mix. Relative DSG1 (Hs00355084_m1) gene expression was calculated by normalization with the housekeeping gene glucose-6-phosphate isomerase (Hs00976711_m1) via qRT-PCR.

vaginal epithelium = assay: Vaginal epithelial integrity and thickness in OVX mice, histology; format: in vivo; conditions: ivag for 9 consecutive days, peptide dimer 10^−4 μM, Fc-EFNA3 1 μM
Procedure: Mice in estrus and OVX mice were used in these experiments. OVX mice received PBS alone, EFNA3-derived peptide dimer (10^−4 μM) or recombinant mouse Fc-EFNA3 (1 μM) via atraumatic intravaginal administration for 9 consecutive days. All mice were euthanized, and vaginal tissue processed for histological evaluation and measurement of vaginal epithelial thickness.
8-10 weeks female C57BL/6J mice were anesthetized. Dorsal skin was shaved and cleaned with 70% ethanol followed by povidone-iodine. Following appropriate sterile technique, a single dorsal skin incision was performed, followed by dissection until ovarian fat pads were identified and ovaries removed. Peritoneal and abdominal walls were sutured, and mice recovered from anesthesia. After confirmation of suppression of estrous cycle, mice were used in experiments.

desmoglein-1a (DSG1a) = assay: qRT-PCR of Dsg1a gene expression in vaginal tissue; format: in vivo, mice
Procedure: (§1) To define progestin-mediated changes in mucosal permeability, vaginal tissue from mice in estrus, diestrus, or after DMPA or LNG treatment was used to measure expression of the desmosomal cadherins desmoglein-1a (DSG1a) and desmocollin-1 (DSC1).
(§2) Human ectocervical and murine vaginal tissues were immediately immersed in 1 mL of RNAlater® (Qiagen), stored for 24 h at 4° C., and stored long-term at −80° C. RNA isolated using the RNeasy Lipid Tissue Kit (Qiagen) using manufacturer's instructions was re-suspended in nuclease-free water and quantified using a NanoDrop spectrophotometer (Thermo Scientific). The following mouse primers were utilized: desmocollin 1 (Mm00496525_ml), desmoglein-1α (Mm00809994_s1), ephrinA3 (Mm01212723_g1) and pyruvate carboxylase (Mm00500992_ml) as housekeeping reference gene (all from Thermo Scientific). These human primers were used: desmoglein-1 (Hs00355084_m1) and glucose-6-phosphate isomerase (Hs00976711_m1) as a housekeeping reference gene. To define relative gene expression, 100 ng of RNA was mixed with TaqMan® RNA-to-Ct™ 1-Step Kit and adequate primer (final volume of 10 μL/well) using manufacturer's instructions (Life Technologies). qRT-PCR was performed using a Quantstudio3 Thermal Cycler, and data analyzed via Quanstudio Software (Applied Biosystems).

DSG1 protein = DSG1 protein levels in vaginal tissue, immunofluorescent staining and confocal microscopy; format: in vivo, mice
Procedure: Excised mouse vaginas were formaldehyde fixed and paraffin embedded (FFPE), and 10 μm sections mounted on glass slides and de-paraffinized by sequential immersion in 100% xylene, 100% ethanol, 96% ethanol, and sterile DEPC-treated water. Antigen retrieval was performed using 10 mM sodium citrate buffer (pH 6.0) containing 0.05% Tween 20 (both Sigma-Aldrich) (20 minutes at 95° C.). After 3 PBS washes, sections were incubated overnight in 10% normal goat serum (Abcam, Cambridge Mass.) at 4° C., then incubated for 1 h at ambient temperate with rabbit anti-desmoglein-1 (clone EPR6766(B)) antibody, washed and incubated for 1 h with AlexaFluor® 488-labeled goat anti-rabbit IgG (antibodies from Abcam) (all antibodies were diluted in PBS with 1% BSA and 0.05% Tween 20). Sections were stained with DAPI and evaluated for levels of DSG1 protein (defined by calculating pixel numbers per 100 μm^2) using confocal microscopy and ImageJ software.

anti-OVA IgE = assay: Mouse epicutaneous sensitization model of atopic dermatitis, serum anti-OVA IgE ELISA; format: in vivo, mice; conditions: 3 cycles, OVA + Fc-EFNA3 vs OVA alone
Procedure: Mice underwent epicutaneous sensitization with OVA alone or in combination with recombinant mouse Fc-EFNA3. After 3 sensitization cycles, animals were euthanized to obtain blood for serum isolation. Then, levels of serum anti-OVA IgE was determined via ELISA.
6-10 weeks old Balb/cJ mice were anesthetized. Dorsal skin was shaved, and skin tape-stripped 6 times. PBS alone, 100 μg of ovalbumin (OVA) in PBS or 100 μg OVA+recombinant mouse Fc-EFNA3 in 100 μl of PBS were added to a 1×1 cm sterile gauze that was applied directly to tape-stripped area of skin and covered with a transparent bio-occlusive dressing. This patch was left in place for a 1-week period and removed. This procedure was repeated twice with 2-week intervals between applications. After completing the 3rd skin sensitization, mice were euthanized and serum samples obtained. Serum levels of anti-OVA IgE were was determined using an in-house ELISA.

desmocollin-1 (DSC1) = assay: qRT-PCR of Dsc1 gene expression in vaginal tissue; format: in vivo, mice; conditions: DMPA-treated mice
Procedure: as §1, §2

HSV-2 = assay: Lethal genital HSV-2 infection; format: in vivo; conditions: DMPA-treated mice; 10^4 pfu of HSV-2
Procedure: Mice were sedated with xylazine (Lloyd Laboratories, Shenandoah Iowa) and ketamine hydrochloride (JHP Pharmaceuticals, LLC Rochester Mich.), and intravaginally infected with 10^4 plaque-forming units (pfu) of WT HSV-2 333 in 10 μL of RPMI. Mouse mortality was evaluated daily for 15 days.

genital mucosal barrier = assay: Murine tissue permeability assay, low molecular weight fluorescent molecules given intravaginally; format: in vivo, mice
Procedure: Effects of progestins on genital mucosal barrier permeability were evaluated by intravaginally (ivag) administering 457 Da and 70 KDa-sized fluorescent molecules to mice in estrus or diestrus-stage or after DMPA or LNG treatment. Mice were grouped as follows: untreated in estrus, untreated in diestrus, DMPA treated, or LNG treated. The mice were intravaginally administered a PBS solution containing Lucifer yellow (457 Da) and Texas-Red-conjugated dextran (70 KDa). Animals were euthanized 45 minutes later to assess vaginal tissue penetration of these molecules by confocal microscopy. […] Mucosal permeability was increased moderately by diestrus, but dramatically by DMPA or LNG. Conversely, permeability increases were negligible in estrus-stage mice and mice treated with MePRDL or DMPA and RU486. This indicates exogenous progestins increase genital mucosal permeability.
To evaluate mucosal permeability to low molecular weight molecules, indicated groups of mice were sedated, and 10 μL of a PBS solution containing 62.5 μg of dextran Texas-Red® (DR) (MW=70,000 Da) and 50 μg of Lucifer yellow CH, lithium salt (LY) (MW=457.2 Da) (both from Life Technologies) administered intravaginally. 45 minutes later, mice were euthanized, and excised vaginal tissue fixed in formaldehyde. Fixed tissue was embedded in agarose, and 200-300 μm specimens were sectioned with a vibratome. After counterstaining with 4,6-diamidino-2-phenylindole (DAPI), confocal microscopy images were acquired by sequential scanning to prevent fluorescence crossover.

Row | Molecule | DSG1 gene expression (VK2/E6E7 vaginal cells) | vaginal epithelial integrity (epithelial thickness) (vaginal epithelium) | potency on Dsg1a expression compared to recombinant mouse Fc-EFNA3 (desmoglein-1a (DSG1a); DMPA-treated mice, Fc-EFNA3 at 1 μM) | Dsg1a mouse vaginal expression (desmoglein-1a (DSG1a); DMPA-treated mice, topical/ivag in PBS, 24 hours) | expression of cell-cell adhesion molecules in genital mucosal epithelium (desmoglein-1a (DSG1a); topical administration) | homogeneity of DSG1 protein expression (DSG1 protein; 1.5 ug in 30 uL of PBS vs 0.5 ug in 10 uL of PBS) | dose that optimized levels of DSG1 protein (DSG1 protein; DMPA-treated mice, 24 hours after treatment) [µg] | DSG1 expression at higher doses (DSG1 protein; DMPA-treated mice, 24 hours, doses above 1 μg) | DSG1 protein expression, dose dependence (DSG1 protein; DMPA-treated mice, 24 hours, up to the 1 μg dose) | serum allergen-specific (anti-OVA) IgE levels (anti-OVA IgE) | serum allergen-specific (anti-OVA) IgE levels (anti-OVA IgE; listed as recombinant mouse Fc-EFNA3) | dose that optimized Dsc1 gene expression (desmocollin-1 (DSC1); ivag 0.25, 0.5, 1 and 2.5 μg in 10 μL, six hours after treatment) [µg] | expression of Dsc1 (desmocollin-1 (DSC1); ivag, select doses vs Fc-control, 6 h) | survival after genital HSV-2 infection (HSV-2) | genital mucosal barrier function / permeability to LMW fluorescent molecules (genital mucosal barrier; DMPA-treated mice, one ivag dose of 1.5 ug/30 uL) | genital mucosal barrier function (summary of the studies) (genital mucosal barrier; via increased expression of epithelial cell-cell adhesion molecules, especially DSG1) | dose that optimized Dsg1a gene expression (desmoglein-1a (DSG1a); DMPA-treated mice, ivag 0.25, 0.5, 1 and 2.5 μg in 10 μL, six hours after treatment) [µg] | expression of Dsg1a (desmoglein-1a (DSG1a); DMPA-treated mice, ivag, select doses vs Fc-control, 6 h)
1 | RYSAFSLGYEFH-Ahx-K-HFEYGLSFASYR (RYSAFSLGYEFH[Ahx]KHFEYGLSFASYR; also: Ahx-Lys linked dimer) [EFNA3-derived peptide dimer, Ahx is aminohexanoic acid] | increase DSG1 expression; also recorded: promotes DSG1 expression | improves vaginal epithelial integrity | greater potency | promotes Dsg1a mouse vaginal expression | significantly increases | – | – | – | – | – | – | – | – | – | – | – | – | –
2 | B1 | – | improves vaginal epithelial integrity | – | – | – | more homogeneous expression | 0.5 | reduced at higher doses | dose-dependent increase | reduces allergen sensitization | decreased allergen-specific IgE levels | 0.5 | increased expression | improves the survival | decreased genital mucosal permeability | enhanced genital mucosal barrier function | 0.5 | increased expression
